From patent US20120070434A1 come the findings set out here.

In general, Kd refers to the constant that tells how readily two partners part at equilibrium.

Like-named read-outs stand apart in the source and are kept apart here.

Experiment [1] has as its target Recombinant TPO receptor (R&D Systems). Nature of the experiment: BLI (Octet), biotinylated TPO receptor on streptavidin probe, second experiment.
Experiment [2] shares this target.

For the molecule “recombinant human thrombopoietin (from UniProt P40225 22-353) (ligand)”, the Kd in experiment [1] is 3 nM.

B1: HC+LC-TPO antibody (antibody)
heavy: QVQLVQSGAEVKKPGASVKVSCKASGYTFTYYAMHWVRQAPGQRPEWMGWINGGDGKTKYAQKFQGRLAITRDTSARTAYMELISLTSEDTAVYYCAKGAEMTVGSWGPGTLVTVSSASTKGPSVFPLAPCSRSTSESTAALGCLVKDYFPEPVTVSWNSGALTSGVHTFPAVLQSSGLYSLSSVVTVPSSNFGTQTYTCNVDHKPSNTKVDKTVERKCCVECPPCPAPPVANPIEGPTLRQWLAARARGGPSVFLFPPKPKDTLMISRTPEVTCVVVDVSQEDPEVQFNWYVDGVEVHNAKTKPREEQFNSTYRVVSVLTVLHQDWLNGKEYKCKVSNKGLPSSIEKTISKAKGQPREPQVYTLPPSQEEMTKNQVSLTCLVKGFYPSDIAVEWESNGQPENNYKTTPPVLDSDGSFFLYSRLTVDKSRWQEGNVFSCSVMHEALHNHYTQKSLSLSLGK
light: DIQMTQSPSSLSASVGDRVTLTCRASQGVRNALVWYQQKPGKAPERLIYAASILQSGVPSRFSGSGSGTEFTLTIGGLQPEDFATYYCLQHNSYPWTFGQGTKVEIKRTVAAPSVFIFPPSDEQLKSGTASVVCLLNNFYPREAKVQWKVDNALQSGNSQESVTEQDSKDSTYSLSSTLTLSKADYEKHKVYACEVTHQGLSSPVTKSFNRGECARSLIEGPTLRQWLAARAPI
Take B1: the Kd worked out at 2.32 nM in experiment [2] and 3 nM in experiment [1].
